Laboratory results as given in patent publication US20220056091A1 (BRIGHT PEAK THERAPEUTICS, published 2022).
Numbering of substitutions follows the chain as printed.

Columns and labels:
Experiment in all cases: cell-based or functional assay
[1] = target: T1, IL-18 polypeptide of SEQ ID NO: 1 (native sequence, human IL-18 37-193) (human, UniProt Q14116 37-193)
T1 sequence: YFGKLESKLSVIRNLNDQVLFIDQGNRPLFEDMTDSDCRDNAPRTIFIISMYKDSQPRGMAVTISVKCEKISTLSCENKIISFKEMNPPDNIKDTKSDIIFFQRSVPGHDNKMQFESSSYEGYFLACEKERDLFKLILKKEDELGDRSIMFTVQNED

[2] = target: T2, Modified IL-18 polypeptide of SEQ ID NO: 10 (E06K, K53A, S55A, T63A) (human, UniProt Q14116 37-193)
T2 chain: T1 sequence with E6K, K53A, S55A, T63A

[3] = target: T3, Modified IL-18 polypeptide of SEQ ID NO: 15 (C38S, C68S, C76S, C127S) (human, UniProt Q14116 37-193)
T3 chain: T1 sequence with C38S, C68S, C76S, C127S

[4] = target: T4, Modified IL-18 polypeptide of SEQ ID NO: 16 (C38S, C68S, C76S, C127S, K70C) (human, UniProt Q14116 37-193)
T4 chain: T1 sequence with C38S, C68S, K70C, C76S, C127S

[5] = target: Modified IL-18 polypeptide of SEQ ID NO: 19 (T63A) (human, UniProt Q14116 37-193)
[6] = target: T5, Modified IL-18 polypeptide of SEQ ID NO: 2 (E06K, K53A, S55A) (human, UniProt Q14116 37-193)
T5 chain: T1 sequence with E6K, K53A, S55A

[7] = target: Modified IL-18 polypeptide of SEQ ID NO: 20 (E06K, T63A) (human, UniProt Q14116 37-193)
[8] = target: Modified IL-18 polypeptide of SEQ ID NO: 21 (K53A, T63A) (human, UniProt Q14116 37-193)
[9] = target: T6, Modified IL-18 polypeptide of SEQ ID NO: 22 (E06K, K53A, C38S, C68S, C76S, C127S, K70C) (human, UniProt Q14116 37-193)
T6 chain: T1 sequence with E6K, C38S, K53A, C68S, K70C, C76S, C127S

[10] = target: T7, Modified IL-18 polypeptide of SEQ ID NO: 23 (K53A, T63A, C38S, C68S, C76S, C127S, K70C) (human, UniProt Q14116 37-193)
T7 chain: T1 sequence with C38S, K53A, T63A, C68S, K70C, C76S, C127S

[11] = target: T8, Modified IL-18 polypeptide of SEQ ID NO: 71 with a 30 kDa PEG attached at residue C68 (E6K, C38S, K53A, … (human, UniProt Q14116 37-193, 30 kDa PEG on Cys 68 (30 kDa DBCO-polyethylene glycol clicked to a bromoacetamido-PEG5-azide linker on the cysteine)))
T8 chain: T1 sequence with E6K, C38S, K53A

[12] = target: T9, Modified IL-18 polypeptide of SEQ ID NO: 3 (Y01G, F02A, E06K, M51G, K53A, D54A, S55A, T63A) (human, UniProt Q14116 37-193)
T9 chain: T1 sequence with Y1G, F2A, E6K, M51G, K53A, D54A, S55A, T63A

[13] = target: Modified IL-18 polypeptide of SEQ ID NO: 4 (K53A) (human, UniProt Q14116 37-193)
[14] = target: Modified IL-18 polypeptide of SEQ ID NO: 9 (K53A, S55A) (human, UniProt Q14116 37-193)
[15] = target: T1, IL-18 polypeptide of SEQ ID NO: 1 …; remark: listed apart in the source

B1: Fc fused human IL-18BP isoform a (IL-18BPa) (Fc fusion, UniProt O95998 31-194, looked up, not shown: a dimerising Fc or GST)
chain: TPVSQTTTAATASVRSTKDPCPSQPPVFPAAKQCPALEVTWPEVEVPLNGTLSLSCVACSRFPNFSILYWLGNGSFIEHLPGRLWEGSTSRERGSTGTQLCKALVLEQLTPALHSTNFSCVLVDPEQVVQRHVVLAQLWAGLRATLPPTQEALPSSHSSPQQQG
[1]
  IC50 (nM), IL-18BPa inhibition of IFNγ release by NK-92 cells (1 nM IL-18 analyte): 1.47 nM
[2]
  IC50 (nM), IL-18BPa inhibition of IFNγ release by NK-92 cells (1 nM IL-18 analyte): 1060 nM
[3]
  IC50 (nM), IL-18BPa inhibition of IFNγ release by NK-92 cells (1 nM IL-18 analyte): 0.444 nM
[4]
  IC50 (nM), IL-18BPa inhibition of IFNγ release by NK-92 cells (1 nM IL-18 analyte): 0.114 nM
[5]
  IC50 (nM), IL-18BPa inhibition of IFNγ release by NK-92 cells (1 nM IL-18 analyte): 0.239 nM
[6]
  IC50 (nM), IL-18BPa inhibition of IFNγ release by NK-92 cells (1 nM IL-18 analyte): 229 nM
[7]
  IC50 (nM), IL-18BPa inhibition of IFNγ release by NK-92 cells (1 nM IL-18 analyte): 47.1 nM
[8]
  IC50 (nM), IL-18BPa inhibition of IFNγ release by NK-92 cells (1 nM IL-18 analyte): 18.2 nM
[9]
  IC50 (nM), IL-18BPa inhibition of IFNγ release by NK-92 cells (1 nM IL-18 analyte): 23.5 nM
[10]
  IC50 (nM), IL-18BPa inhibition of IFNγ release by NK-92 cells (1 nM IL-18 analyte): > 1000 nM
[11]
  IC50 (nM), IL-18BPa inhibition of IFNγ release by NK-92 cells (1 nM IL-18 analyte): 0.66 nM
[12]
  IC50 (nM), IL-18BPa inhibition of IFNγ release by NK-92 cells (1 nM IL-18 analyte): > 55 nM
[13]
  IC50 (nM), IL-18BPa inhibition of IFNγ release by NK-92 cells (1 nM IL-18 analyte): 27.3 nM
[14]
  IC50 (nM), IL-18BPa inhibition of IFNγ release by NK-92 cells (1 nM IL-18 analyte): 37.3 nM
[15]
  IC50 (read off the curve); IFNγ production by NK-92 cells stimulated with IL-18 WT: ~1 nM
